Reference: patent US20260035433A1

Molecular target: His-Tagged rhFc(gamma) receptor I (recombinant human Fc(gamma)R-I; Acro Biosystems, catalog# FCA-H52H1) (human)
Assay: ELISA, control IgG coated, His-tagged rhFc(gamma)RI in solution, anti-His-HRP

Chain of His-Tagged rhFc(gamma) receptor I (recombinant human Fc(gamma)R-I; Acro Biosystems, catalog# FCA-H52H1) (human) (P12314 16-292): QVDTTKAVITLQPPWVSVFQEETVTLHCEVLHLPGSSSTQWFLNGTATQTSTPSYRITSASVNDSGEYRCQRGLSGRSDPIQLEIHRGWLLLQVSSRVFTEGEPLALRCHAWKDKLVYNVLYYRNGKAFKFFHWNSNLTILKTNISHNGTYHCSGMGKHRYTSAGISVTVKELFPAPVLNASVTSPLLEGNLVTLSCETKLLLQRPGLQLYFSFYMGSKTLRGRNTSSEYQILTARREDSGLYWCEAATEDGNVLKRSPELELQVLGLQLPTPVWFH

OD450 at 222 ng/ml Fc(gamma) RI: 0.686 OD450
Substance: Dog IgG, Control Rockland-Inc, Cat# 004-0102-005 (antibody)
